{
  "source": "paper PMC4683619",
  "molecular_target": "TNFR1 on L929 cells (mouse (endogenous in L929)) (UniProt P25118)",
  "sequence (P25118 30-454)": "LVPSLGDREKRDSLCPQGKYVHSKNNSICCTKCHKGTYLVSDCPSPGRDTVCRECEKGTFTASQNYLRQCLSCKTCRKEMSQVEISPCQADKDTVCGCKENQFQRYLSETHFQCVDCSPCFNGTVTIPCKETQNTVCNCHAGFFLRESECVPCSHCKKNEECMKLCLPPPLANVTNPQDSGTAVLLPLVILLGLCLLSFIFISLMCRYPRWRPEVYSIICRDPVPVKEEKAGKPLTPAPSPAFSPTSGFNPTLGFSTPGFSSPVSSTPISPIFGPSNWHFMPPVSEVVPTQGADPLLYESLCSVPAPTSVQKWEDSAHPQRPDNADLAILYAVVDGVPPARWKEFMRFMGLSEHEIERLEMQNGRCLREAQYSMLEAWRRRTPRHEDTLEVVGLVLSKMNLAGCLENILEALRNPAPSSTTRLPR",
  "data": [
    {"substance": "recombinant single-chain TNF-α, His tag cleaved, unmodified (ligand)", "values": [
      {"measurement": "cytotoxicity against L929 cells (WST-1, with actinomycin D, 24 h), EC50", "value": 0.00035, "unit": "ng/mL"}
    ]},
    {"substance": "PRINT PEG20K scTNF-α (N-terminal mono-PEGylated single-chain TNF-α) (ligand)", "values": [
      {"measurement": "cytotoxicity against L929 cells (WST-1, with actinomycin D, 24 h), EC50", "value": 0.00062, "unit": "ng/mL"}
    ]},
    {"substance": "randomly PEGylated scTNF-α (directly PEGylated PEG5K scTNF-α) (ligand)", "values": [
      {"measurement": "cytotoxicity against L929 cells (WST-1, with actinomycin D, 24 h), EC50", "value": 0.0046, "unit": "ng/mL"}
    ]},
    {"substance": "PRINT PEG5K scTNF-α (N-terminal mono-PEGylated single-chain TNF-α) (ligand)", "values": [
      {"measurement": "cytotoxicity against L929 cells (WST-1, with actinomycin D, 24 h), EC50", "value": 0.00058, "unit": "ng/mL"}
    ]},
    {"substance": "citraconylated scTNF-α (ligand)", "values": [
      {"measurement": "cytotoxicity against L929 cells (WST-1, with actinomycin D, 24 h), EC50", "value": 0.0076, "unit": "ng/mL"}
    ]}
  ]
}
